Measurements as given in paper PMC9972567.

Target: Ep300 (UniProt B2RWS6)
Experiment: anti-V5 IP, Ep300 immunoblot
Conditions: reference: wild type; sites S656

Substance: PIMT/TGS1 (human PIMT-V5) (from UniProt Q96RS0) S656A
- binding against the reference: weaker
